This is an account of results in US20040102388.

Some targets named below: FVII-PRPSRKRR (UniProt P08709); FVII-RKRRKR (UniProt P08709); FVII-RKR (UniProt P08709).
Series [1] addresses wild type FVII (human Factor VII) (UniProt P08709).

Turning to Factor Xa, the “FXa activation: conversion of single-chain zymogen to two-chain material (reducing gel)” value with FVII-PRPSRKRR was “the single-chain zymogen protein in all but FVII-INS was nearly completely converted to two-chain material”; with FVII-RKRRKR it was “the single-chain zymogen protein in all but FVII-INS was nearly completely converted to two-chain material”; with FVII-RKR it was “the single-chain zymogen protein in all but FVII-INS was nearly completely converted to two-chain material”; in series [1] it was “modified FVII, like wild type FVII, is autoactivated by (A) soluble Tissue factor (sTF) and (B) Factor Xa”. Further, the “FXa concentration giving complete cleavage of zymogen” value in the series with FVII-PRPSRKRR is listed as “Addition of 1 µM FXa (i.e 50 fold higher than for the other FVIIa proteins) resulted in complete cleavage of zymogen FVII-INS”.

B1: wild type FVII (human Factor VII) (protein)
chain: ANAFLEELRPGSLERECKEEQCSFEEAREIFKDAERTKLFWISYSDGDQCASSPCQNGGSCKDQLQSYICFCLPAFEGRNCETHKDDQLICVNENGGCEQYCSDHTGTKRSCRCHEGYSLLADGVSCTPTVEYPCGKIPILEKRNASKPQGRIVGGKVCPKGECPWQVLLLVNGAQLCGGTLINTIWVVSAAHCFDKIKNWRNLIAVLGEHDLSEHDGDEQSRRVAQVIIPSTYVPGTTNHDIALLRLHQPVVLTDHVVPLCLPERTFSERTLAFVRFSLVSGWGQLLDRGATALELMVLNVPRLMTQDCLQQSRKVGDSPNITEYMFCAGYSDGSKDSCKGDSGGPHATHYRGTWYLTGIVSWGQGCATVGHFGVYTRVSQYIEWLQKLMRSEPRPGVLLRAPFP
Turning to B1, the “autoactivation: cleavage of single-chain zymogen to two-chain FVIIa (reducing gel)” value (from here on “autoactivation: cleavage … (reducing gel)”) with soluble Tissue factor is on record as “single-chain protein (zymogen) in the FVII or the FVIIa preparations was cleaved to yield a two-chain material (FVIIa)”.

B2: FVII-PRPSRKRR (protein)
chain: ANAFLEELRPGSLERECKEEQCSFEEAREIFKDAERTKLFWISYSDGDQCASSPCQNGGSCKDQLQSYICFCLPAFEGRNCETHKDDQLICVNENGGCEQYCSDHTGTKRSCRCHEGYSLLADGVSCTPTVEYPCGKIPILEKRNASKPQGRPRPSRKRRIVGGKVCPKGECPWQVLLLVNGAQLCGGTLINTIWVVSAAHCFDKIKNWRNLIAVLGEHDLSEHDGDEQSRRVAQVIIPSTYVPGTTNHDIALLRLHQPVVLTDHVVPLCLPERTFSERTLAFVRFSLVSGWGQLLDRGATALELMVLNVPRLMTQDCLQQSRKVGDSPNITEYMFCAGYSDGSKDSCKGDSGGPHATHYRGTWYLTGIVSWGQGCATVGHFGVYTRVSQYIEWLQKLMRSEPRPGVLLRAPFP
As for B2, the “autoactivation: cleavage … (reducing gel)” value with soluble Tissue factor is “all modified FVIIa contain single-chain material that can be cleaved”.

B3: FVII-RKR (protein)
chain: ANAFLEELRPGSLERECKEEQCSFEEAREIFKDAERTKLFWISYSDGDQCASSPCQNGGSCKDQLQSYICFCLPAFEGRNCETHKDDQLICVNENGGCEQYCSDHTGTKRSCRCHEGYSLLADGVSCTPTVEYPCGKIPILEKRNASKPQGRRKRIVGGKVCPKGECPWQVLLLVNGAQLCGGTLINTIWVVSAAHCFDKIKNWRNLIAVLGEHDLSEHDGDEQSRRVAQVIIPSTYVPGTTNHDIALLRLHQPVVLTDHVVPLCLPERTFSERTLAFVRFSLVSGWGQLLDRGATALELMVLNVPRLMTQDCLQQSRKVGDSPNITEYMFCAGYSDGSKDSCKGDSGGPHATHYRGTWYLTGIVSWGQGCATVGHFGVYTRVSQYIEWLQKLMRSEPRPGVLLRAPFP
Consider B3, for which, in the series with soluble Tissue factor, the “autoactivation: cleavage … (reducing gel)” value is “all modified FVIIa contain single-chain material that can be cleaved”.

B4: FVII-RKRRKR (protein)
chain: ANAFLEELRPGSLERECKEEQCSFEEAREIFKDAERTKLFWISYSDGDQCASSPCQNGGSCKDQLQSYICFCLPAFEGRNCETHKDDQLICVNENGGCEQYCSDHTGTKRSCRCHEGYSLLADGVSCTPTVEYPCGKIPILEKRNASKPQGRRKRRKRRKRIVGGKVCPKGECPWQVLLLVNGAQLCGGTLINTIWVVSAAHCFDKIKNWRNLIAVLGEHDLSEHDGDEQSRRVAQVIIPSTYVPGTTNHDIALLRLHQPVVLTDHVVPLCLPERTFSERTLAFVRFSLVSGWGQLLDRGATALELMVLNVPRLMTQDCLQQSRKVGDSPNITEYMFCAGYSDGSKDSCKGDSGGPHATHYRGTWYLTGIVSWGQGCATVGHFGVYTRVSQYIEWLQKLMRSEPRPGVLLRAPFP
Consider B4, for which, in the series with soluble Tissue factor, the “autoactivation: cleavage … (reducing gel)” value is “all modified FVIIa contain single-chain material that can be cleaved”.
